The values below come from paper PMC10397247.

Holding throughout (assay): two-hybrid library CCNG1;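 also: natural log of median RNA to DNA barcode read ratio; higher means stronger binding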
The target of assay [1] is T1, 4H3631-bN.
T1 chain: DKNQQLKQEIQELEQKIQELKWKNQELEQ

Assay [2] has as its target T2, 4H3414-bN.
T2 chain: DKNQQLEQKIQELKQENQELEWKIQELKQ

The target of assay [3] is T3, 4H2839-bN.
T3 chain: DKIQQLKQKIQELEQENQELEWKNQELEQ

In assay [4] the target is T4, 4H570-bN.
T4 chain: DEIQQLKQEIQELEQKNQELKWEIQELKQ

Assay [5] concerns the target T5, 4H1629-bN.
T5 chain: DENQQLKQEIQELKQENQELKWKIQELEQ

The target of assay [6] is T6, 4H3172-bN.
T6 chain: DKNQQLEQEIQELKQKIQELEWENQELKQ

For assay [7], the target named is T7, 4H3129-bN.
T7 chain: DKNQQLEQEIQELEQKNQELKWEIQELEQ

The target in assay [8] is T8, 4H2586-bN.
T8 chain: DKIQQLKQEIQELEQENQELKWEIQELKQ

Assay [9] addresses T9, 4H906-bN.
T9 chain: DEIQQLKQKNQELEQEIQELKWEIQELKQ

The target in assay [10] is T10, 4H850-bN.
T10 chain: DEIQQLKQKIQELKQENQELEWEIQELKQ

In assay [11] the target is T11, 4H1710-bN.
T11 chain: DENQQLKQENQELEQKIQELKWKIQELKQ

Assay [12] concerns the target T12, 4H619-bN.
T12 chain: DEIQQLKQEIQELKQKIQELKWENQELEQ

Assay [13] concerns the target T13, 4H1985-bN.
T13 chain: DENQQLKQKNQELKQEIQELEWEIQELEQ

Assay [14] deals with T14, 4H1804-bN.
T14 chain: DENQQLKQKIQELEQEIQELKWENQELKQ

In assay [15] the target is T15, 4H3638-bN.
T15 chain: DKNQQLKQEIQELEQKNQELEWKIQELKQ

The target in assay [16] is T16, 4H3974-bN.
T16 chain: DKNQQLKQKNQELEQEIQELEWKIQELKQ

The target of assay [17] is T17, 4H584-bN.
T17 chain: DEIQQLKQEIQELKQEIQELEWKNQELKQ

The target of assay [18] is T18, 4H3817-bN.
T18 chain: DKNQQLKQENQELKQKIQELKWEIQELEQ

For the molecule DENQQLKQEIQELKQENQELKWKIQELEQ [4H1629-bN], the interaction score in [1] was -0.59; in [2], -0.735; in assay [3], -1.72; in assay [4], -2.4; in assay [5], 1.42; in [6] it was -0.119. Moreover, the interaction score was -0.732 in assay [7]; -1.65 in assay [8]; -1.39 in assay [9]; -0.949 in assay [10]; -0.768 in assay [11]; -0.476 in assay [12]. Further, the interaction score was -0.575 in assay [13]; -2.35 in assay [14]; -1.43 in assay [15]; -0.785 in [16]; -0.0341 in assay [17]; -2.51 in assay [18].
